{"source": "paper PMC2171497", "target": "2′,3′-cyclic nucleotide 3′-phosphodiesterase (CNP), endogenous, rat (rat (endogenous in cultured rat OLs and rat brain)) (UniProt P13233)", "sequence (P13233 whole entry)": "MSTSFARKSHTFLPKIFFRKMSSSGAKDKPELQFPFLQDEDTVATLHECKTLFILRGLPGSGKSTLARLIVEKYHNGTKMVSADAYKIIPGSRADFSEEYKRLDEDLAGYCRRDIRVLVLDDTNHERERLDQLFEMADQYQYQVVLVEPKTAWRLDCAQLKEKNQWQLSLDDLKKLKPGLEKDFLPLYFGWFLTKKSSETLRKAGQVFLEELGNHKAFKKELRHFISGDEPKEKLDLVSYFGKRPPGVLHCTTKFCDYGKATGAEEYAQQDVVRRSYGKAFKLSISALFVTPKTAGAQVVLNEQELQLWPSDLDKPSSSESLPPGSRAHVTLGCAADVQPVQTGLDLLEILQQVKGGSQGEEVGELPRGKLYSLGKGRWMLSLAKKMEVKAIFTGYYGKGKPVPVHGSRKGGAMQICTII", "assay": "co-IP", "data": [{"substance": "tubulin (α- and β-tubulin), endogenous, rat (from UniProt P68370 1-451; Q3KRE8 1-445) (complex)", "values": [{"measurement": "stoichiometry N", "result": 1}]}]}
